In patent US20160272995A1, “MANIPULATION OF PLASMODESMAL CONNECTIVITY TO IMPROVE PLANT YIELD AND FITNESS” (UNIVERSITY OF DELAWARE, priority 2013, published 2016):
Where “and” joins values, the source holds several entries; their conditions need not be identical. Equal values may be shown once.

Legend:
plasmodesmata (PD) = details: Arabidopsis plants; cited from earlier work
LAX3pro:LAX3-YFP = LAX3pro:LAX3-YFP signal in overlying Co cells after gravistimulation; assay type: in vivo, Arabidopsis thaliana
Protocol: (A) Seedlings were gravistimulated at 3 days post germination and the LAX3::LAX3-YFP signal was monitored under a confocal microscope from 14 hours post-gravitropic induction through 36 hours post-gravitropic induction at the root bend. Images were selected to show the earliest detection time points. […] Scale bars, 50 μm. (B) Quantification of relative occurrence of LAX3-YFP signal in Co at 22 hours post-gravitropic induction (hpg) based on the data presented in Table 3.
We monitored LAX3-YFP signal accumulation in overlying Co using the gravitropic assay.
Arabidopsis seedlings expressing LAX3::LAX3:YFP in the desired background were grown as described above for three days, followed by gravistimulation by turning the plates 90° . The cortical cell fluorescence at the root bend was monitored at different time points using a Zeiss LSM 780 confocal upright light microscope using a W Plan-Apochromat 20×/1.0 DIC M27 75 mm objective and the […] excitation line of an argon laser with 520-550 nm band pass emission filter. Images are presented as 3-D composites of 30 μm-thick z-stacks.

[1] = Arabidopsis plants; cited from earlier work
[2] = test system: Nicotiana benthamiana leaves; assay: Transient expression via Agrobacteria-infiltration, extent of viral movement; assay type: in vivo; details: transient expression in Nicotiana benthamiana leaves
Protocol: (a) Schematics of PDLP5-m5, PDLP5-C, and PDLP5-2C mutants as created by overlapping PCR. (b) Transient expression of mutants in Nicotiana benthamiana leaves.
We also created mutants altering just two cysteines (“CC”, residues 288 and 289 of the C-terminal tail region) or a single cysteine (“C”, residue 298 of the C-terminal tail region) residues to A1a. The phenotypes of these partial mutants, as well as the PDLP5-OX, pldp5-1 and PDLP5-m5, were tested in transient expression in Nicotiana benthamiana leaves via Agrobacteria-infiltration, targeting the extent of viral movement for comparison.

Arabidopsis thaliana [3] = assay: Vegetative growth, flowering and seed yield of plants; assay type: in vivo; details: 22-20° C., 16/8 hours light/darkness
Protocol: Wild type (WT) plants, plants overexpressing […]), and plants with a severe knock down of […] used as comparisons. (a) Whole plants at 10, 14, and 18 days post germination (dpg). Plants were grown at 22-20° C. with 50% humidity and with 16/8 hours light/darkness. (b) Leaves at 3 weeks post germination. Plants were grown at 24-22° C. with 70% humidity and with 16/8 hours light/darkness. […] Wild type (WT) plants, plants overexpressing PDLP5 (OX), and plants with a severe knock down of PDLP5 (KO) were used as comparisons. […] Seeds were germinated on plates, were transferred to soil after 1 week, and plants were grown at 22-20° C. with 16/8 hours light/darkness. […] Wild type (WT) plants and plants overexpressing […]) were used as comparisons. Plants were grown at 24-22° C. with 70% humidity and with 16/8 hours light/darkness. […] The sequence of the PCR product was confirmed followed by transformation of Top10 E. coli competent cells. […] Agrobacteria were transformed with the […]5 clone.

Arabidopsis thaliana [4] = assay: Primary and lateral root quantification in seedlings; assay type: in vivo
Protocol: (A) Lateral root development in wild type (WT) plants, plants having a severe knock down of PDLP5 (pdlp5-1), and plants overexpressing PDLP5 (PDLPOE) expressing DR5:GUS. Arrowheads indicate tertiary roots. (B) Quantification of total lateral root numbers (both emerged and unemerged secondary [2°], tertiary [3°], and quaternary [4°] roots). n≧30 per seedling set. Bars, standard deviation. Stars, significance determined by student T-test (P<0.01). (C) A diagram depicting several stages of LRP emergence. (D) Percent distribution of LRP stages, recorded at root bend at indicated time points following gravistimulation at 3 dpg. n≧20 seedlings per set.
(A-C) GUS-stained 11-day-old seedlings expressing DR5:GUS in wild type (WT) Col-0 plants (A), plants having a severe knock down of PDLP5 (pdlp5-1) (B), and plants overexpressing PDLP5 (PDLPOE) (C). Size bar in (A), common to (B) and (C). (D) Measurement of primary root length in 10-day-old wild type (WT) seedlings, seedlings having a severe knock down of PDLP5 (pdlp5-1), and seedlings overexpressing PDLP5 (PDLPOE). n=30 seedling per line. (E) Measurement of % emerged lateral root (LR) of total secondary roots in 10-day-old WT, pdlp5-1, and PDLP5OE seedlings. n=30 seedling per line. (F) Measurement of average secondary root length per seedling in 7-day-old WT and pdlp5-1. n=28 seedlings per line.
To investigate the importance of PD function during lateral root emergence, PDLP5 loss-of-function and over-expressing lines were characterized. […] Furthermore, this reduction in secondary root development was reiterated in later stages of root branching, with PDLP5OE showing reduced tertiary root occurrence (26% and 50% of WT at 8 and 11 day post germination [dpg], respectively). […] Lateral roots were 1.4-fold longer on average in pdlp5-1 than WT (FIG. 17F) at 7 dpg and later. […] Given the overall increase in average secondary root length in pdlp5-1, we conclude that the higher occurrence of tertiary and quaternary root formation can be attributed to an accelerated secondary root growth.
All Arabidopsis thaliana genotypes were in the Col-0 genetic background, except for shy2-2 in Ler, and iaa28-1 in Ws. Seedlings were grown vertically in 0.5X MS agar under a continuous light at 22° C. Plants in soil were grown in a 16 hr light, 22° C. All the genetic crosses (see Table 5) were selfed, and genotyped to identify homozygous mutations when necessary. Genomic DNA was isolated from segregating F2 plants followed by PCR analyses using gene-specific primers (see Table 6).
GUS solution (100 mM sodium phosphate buffer, pH 7.0, 10 mM EDTA, 0.5 mM each potassium ferrocyanide and potassium ferricyanide, 1.24 mM X-Gluc, and 0.1% Triton X-100) was vacuum-infiltrated into plant tissue for five minutes, then removed from vacuum and incubated in 37° C. for 3 to 12 hrs, followed by a series of ethanol washes. Stained tissues were imaged using Zeiss Axioskop 2 microscope. LRP were quantified by counting both the emerged LR and unemerged LR, as determined by DRS::GUS staining of the primordia, under a dissecting microscope (1.2× magnification). LRP stages were determined by examining ethanol-cleared, GUS-stained tissue using 40× water lens.

[5] = 22 hours post-gravitropic stimulation

B1: PDLP5OE: Wild-type A. thaliana PDLP5 protein (SEQ ID NO:4) constitutively overexpressed in plants under the 35S promoter (protein, listed as Arabidopsis thaliana)
chain: MIKTKTTSLLCFLLTAVILMNPSSSSPTDNYIYAVCSPAKFSPSSGYETNLNSLLSSFVTSTAQTRYANFTVPTGKPEPTVTVYGIYQCRGDLDPTACSTCVSSAVAQVGALCSNSYSGFLQMENCLIRYDNKSFLGVQDKTLILNKCGQPMEFNDQDALTKASDVIGSLGTGDGSYRTGGNGNVQGVAQCSGDLSTSQCQDCLSDAIGRLKSDCGMAQGGYVYLSKCYARFSVGGSHARQTPGPNFGHEGEKGNKDDNGVGKTLAIIIGIVTLIILLVVFLAFVGKCCRKLQDEKWCK
movement between cells reduced by (plasmodesmata (PD)): 70%
LAX3pro:LAX3-YFP cortical signal, ratio PDLP5:WT (LAX3pro:LAX3-YFP; 24 hpg): 0.42 and 0.68
LAX3pro:LAX3-YFP cortical signal, seedlings (LAX3pro:LAX3-YFP; 24 hpg): 33%
LAX3pro:LAX3-YFP cortical signal, ratio PDLP5:WT (LAX3pro:LAX3-YFP; 24 hpg, mean): 0.55
LAX3pro:LAX3-YFP cortical signal, ratio PDLP5:WT (LAX3pro:LAX3-YFP; 36 hpg): 1
ratio to WT of seedlings expressing LAX3pro:LAX3-YFP in Co cells (LAX3pro:LAX3-YFP; [5]): 0
seedlings expressing LAX3pro:LAX3-YFP in overlaying Co cells (LAX3pro:LAX3-YFP; [5]): no fluorescent signals evident
total SA compared with the wild-type control [1]: 15 fold
extent of viral movement [2]: delay in viral movement
rosette diameter (Arabidopsis thaliana [3]): reduced rosette diameter
secondary roots, % of WT number (Arabidopsis thaliana [4]; 8 dpg): 66%
tertiary root occurrence, % of WT (Arabidopsis thaliana [4]; 8 dpg): 26%
emerged LRP among total secondary roots, % of that found in WT (Arabidopsis thaliana [4]; 10-day-old seedlings): 50%
secondary roots, % of WT number (Arabidopsis thaliana [4]; 11 dpg): 77%
tertiary root occurrence, % of WT (Arabidopsis thaliana [4]; 11 dpg): 50%
reduction in the primary root length (Arabidopsis thaliana [4]; ten-day-old seedlings, compared to WT): approximately 30%
